Laboratory results published in patent US20180305465A1.

Legend:
[1] = target: Recombinant human CD3ε-Fc (human); assay: Absolute KD; SPR, Biacore T200, CD3ε-Fc amine coupled to CM5 at lowest usable density; koff/kon, 1:1 global fit
[2] = target: Recombinant minimally biotinylated cynomolgus CD38-His (Sino Biological Inc.) (cynomolgus) (UniProt Q5VAN0); assay: Absolute KD; BLI, Octet HTX, CD38-His at five loading levels 0.3-2 nm, plateau of measured KD as loading decreases
[3] = target: Recombinant minimally biotinylated human CD38-His (Fisher Scientific) (human) (UniProt P28907); assay: as above
[4] = target: Recombinant minimally biotinylated cynomolgus CD38-His (Sino Biological Inc.) (cynomolgus) (UniProt Q5VAN0); assay: BLI, Octet HTX; biotinylated CD38-His on streptavidin tips (2 nm), antibody in solution; 1:1 model, kd/ka
[5] = target: Recombinant minimally biotinylated human CD38-His (Fisher Scientific) (human) (UniProt P28907); assay: as above
[6] = target: Recombinant cynomolgus CD3ε-Fc (cynomolgus) (UniProt Q95LI5); assay: SPR, SensiQ Pioneer FE; CD3ε-Fc amine coupled to CM5 chip; equilibrium analysis
[7] = target: Recombinant human CD3ε-Fc (human); assay: as above
[8] = target: cynomolgus CD38 on cynomolgus B cells (PBMCs) (cynomolgus) (UniProt Q5VAN0); assay: cell-based or functional assay
Chain of cynomolgus CD38 on cynomolgus B cells (PBMCs) (cynomolgus) (Q5VAN0 whole entry): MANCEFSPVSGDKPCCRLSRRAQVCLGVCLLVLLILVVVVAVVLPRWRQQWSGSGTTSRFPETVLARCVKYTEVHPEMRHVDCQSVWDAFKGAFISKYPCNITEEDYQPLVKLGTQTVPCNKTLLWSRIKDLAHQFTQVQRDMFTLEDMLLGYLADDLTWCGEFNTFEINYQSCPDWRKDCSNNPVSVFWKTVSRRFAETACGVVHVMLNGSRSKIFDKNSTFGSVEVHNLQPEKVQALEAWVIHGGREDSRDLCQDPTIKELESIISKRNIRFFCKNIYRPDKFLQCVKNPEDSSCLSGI

Chain of Recombinant human CD3ε-Fc (human) (chain, as listed by the source): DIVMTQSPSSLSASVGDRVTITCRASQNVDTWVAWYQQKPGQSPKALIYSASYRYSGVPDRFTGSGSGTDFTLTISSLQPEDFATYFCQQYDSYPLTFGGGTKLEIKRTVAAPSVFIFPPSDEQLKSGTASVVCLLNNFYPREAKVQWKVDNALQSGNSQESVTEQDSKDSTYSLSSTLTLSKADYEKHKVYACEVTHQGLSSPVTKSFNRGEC
Chain of Recombinant minimally biotinylated human CD38-His (Fisher Scientific) (human) (P28907 43-300 limits assumed): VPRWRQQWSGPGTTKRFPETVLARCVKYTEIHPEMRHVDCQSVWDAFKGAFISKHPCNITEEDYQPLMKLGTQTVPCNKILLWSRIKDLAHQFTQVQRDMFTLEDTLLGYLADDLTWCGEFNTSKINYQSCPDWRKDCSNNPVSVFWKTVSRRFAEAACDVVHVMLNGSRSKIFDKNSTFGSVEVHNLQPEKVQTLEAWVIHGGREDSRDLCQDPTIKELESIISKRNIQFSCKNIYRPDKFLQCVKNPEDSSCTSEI
Chain of Recombinant minimally biotinylated cynomolgus CD38-His (Sino Biological Inc.) (cynomolgus) (Q5VAN0 44-301 limits assumed): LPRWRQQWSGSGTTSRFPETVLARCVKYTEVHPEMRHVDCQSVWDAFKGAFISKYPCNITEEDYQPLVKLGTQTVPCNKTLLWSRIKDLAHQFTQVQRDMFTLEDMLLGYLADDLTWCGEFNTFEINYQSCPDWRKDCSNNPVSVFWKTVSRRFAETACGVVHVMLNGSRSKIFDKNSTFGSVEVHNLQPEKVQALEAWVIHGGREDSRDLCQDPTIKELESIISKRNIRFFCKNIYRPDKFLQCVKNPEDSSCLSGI
Chain of Recombinant cynomolgus CD3ε-Fc (cynomolgus) (Q95LI5 22-117 limits assumed): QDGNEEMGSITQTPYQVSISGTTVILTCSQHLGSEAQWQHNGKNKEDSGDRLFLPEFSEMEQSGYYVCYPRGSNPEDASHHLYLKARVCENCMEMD

- Kd [1]: 35.6 nM
- Kd [2]: 7.5 nM
- Kd [3]: 8.9 nM
- Kd [4]: 2.8 nM
- Kd [5]: 2.5 nM
- Kd [6]: 33.5 nM
- Kd [7]: 29.7 nM
- Cyno B Cell TDCC EC50 [8]: 0.082 nM
Substance: XmAb18968 (412220) (bispecific antibody)
